Test [1] addresses T1, Calcineurin (human PPP3CA / PPP3R1 heterodimer) (human, UniProt Q08209 1-521; P63098 1-170).
T1 construct: Calcineurin A subunit, human PPP3CA, from pET15b CnA CnB; Calcineurin B subunit, human PPP3R1, from pET15b CnA CnB; also called Cn; PP2B; source: E. coli BL21(DE3) or BL21 Star (DE3), purified (ammonium sulphate, Ni-NTA, Resource Q, S200 SEC)
The experiment in a line: SPR; Biacore T200, 25 °C; biotin-Cys-AKAP constructs immobilised on an SA chip, Calcineurin as analyte; 10 mM PIPES pH 6.5, 150 mM NaCl, 0.05% Tween20; apparent Kd from fit of the response at the end of association vs concentration ('steady-state'). The note with it: both partners purified.

The target of test [2] is T1, Calcineurin (human PPP3CA / PPP3R1 …). The experiment in a line: ITC; ITC200, 25 °C; 250 µM AKAP5c or AKAP5c_(ILVF->SA) injected into 18.32 µM Calcineurin; 10 mM Tris/HCl pH 7.4, 150 mM NaCl, 5 mM DTT; 1-site model (average of two repeats) and 2-site model with fixed N = 1 (global fit). The note with it: both partners purified.

B1: Biotin-Cys-AKAP5c_(ILVF->SA) (domain or fragment)
chain: CVAEETKPKDTELSQESDFKENGITEEKSKSEESKRMEPIAIIITDTEISEFDVTKSKNVPKQASASAENEQVGVFANDNGFEDRTSEQYETASAETASSLVKNAAQSSAEQSANEMASDDNKINNLLQ
modifications: biotin (EZ-Link Maleimide-PEG2-Biotin) on the unique added N-terminal Cys
notes: unique Cys added immediately after the GS of the thrombin or TEV site; AKAP5 (AKAP79), human, residues 300-427; all I, L, V and F residues of the three secondary sites mutated to S or A; A GS remnant of the protease site probably precedes the Cys; also called AKAP5c_(ILVF->SA) (on the SPR surface); source: E. coli BL21(DE3) or BL21 Star (DE3), purified (heat step, Ni-NTA, Resource Q), …
Take B1: in test [1], the Kd is approximately 600 nM.

B2: AKAP5c_(ILVF->SA) (domain or fragment)
chain: VAEETKPKDTELSQESDFKENGITEEKSKSEESKRMEPIAIIITDTEISEFDVTKSKNVPKQASASAENEQVGVFANDNGFEDRTSEQYETASAETASSLVKNAAQSSAEQSANEMASDDNKINNLLQ
notes: AKAP5 (AKAP79), human, residues 300-427; all I, L, V and F residues of the three secondary sites mutated to S or A; PIAIIIT site present; Generated by gene synthesis (GeneArt); 15N-labelled for NMR, unlabelled for ITC; also called AKAP_(ILVF->SA); source: E. coli BL21(DE3) or BL21 Star (DE3), purified (heat step, Ni-NTA, Resource Q)
Turning to B2, in test [2], the Kd amounted to 1500 nM and the “stoichiometry N” value was 0.99 AKAP5c:Cn.
